Tests used:
[1] = system: HUVECs; assay: Immunofluorescence of transfected HUVECs; format: cell-based, human; conditions: anti-miR, 48 hrs
Method: Cells were fixed using 4% paraformaldehyde in PBS at room temperature for 15 min. For intracellular staining, fixed cells were permeabilized using 0.5% Triton X-100 in PBS (Sigma-Aldrich) or 0.1% Saponin in PBS at room temperature for 10 min. The blocking of […] antibody activity was performed using 3% bovine serum albumin (BSA) in PBS for 1 hour. Samples were incubated with antibodies to CD31 (Abcam, ab28364, 1:50), VE-cadherin (Abcam, ab33168, 1:100), FSP-1 (Abcam, ab41532, 1:200) and COL1A1 (Abcam, ab138492, 1:100) in PBS containing 1% BSA at 4° C. overnight. Samples were washed extensively with PBS and incubated with Alexa-Fluor-488-conjugated antibodies to rabbit IgG (Life Technologies, Carlsbad, Calif., #A11070) and Alexa-Fluor-594-conjugated antibodies to rabbit IgG (Life Technologies, Carlsbad, Calif., #A11072) in DAPI with PBS with 1% BSA at room temperature for 1 h. Image analysis was performed on Zeiss LSM 780 confocal microscope.

[2] = system: HUVECs treated with TNF-α/IL-1β; assay: Rescue of TNF-α/IL-1β-induced EndMT in HUVECs; format: cell-based, human; conditions: mimic-transfected HUVECs, TNF-α/IL-1β 6 days
Method: Human umbilical vein ECs (HUVECs; Lonza) were grown in EGM-2 (comprising EBM-2 with growth factors and other supplements) with 2% Foetal Bovine Serum. Confluent HUVECs were treated with 10 ng/ml TNF-α, IL-1β, TGFβ2 (PeproTech); medium and cytokines were changed every two days. SB431542 (Tocris) has been used at the dose of 10 μM. HEK293T cells (ATCC®, CRL-11268) were cultured in D-MEM with 10% FBS (Life Technologies).
Total RNA was extracted using miReasy kit (Qiagen). Real-time quantification to measure miRNAs was performed with the TaqMan miRNA reverse transcription kit and miRNA assay (Life Technology) using Lightcycler 480 (Roche). miRNAs expression was normalized to the U6 […] (snRU6). For mRNA analysis, cDNA was amplified by quantitative real-time PCR (qPCR) and normalized to 18S ribosomal RNA. Each reaction was performed in triplicate. Quantification was performed by the 2^−ΔΔCt method^52. qPCR was used to measure the expression of miR-148b (miR-148b-3p Thermo Fisher Scientific, Cat. #4426961), snRU6 (ThermoFisher Scientific, Cat. #4331182), TGFβ2, SMAD2, CD31, VE-Cadherin, COL1A1, α-SMA, SLUG, VIM, SNAIL, TWIST, ZEB1/2 and 18S rRNA. Primers are pre-designed from Sigma (KiCgStart™ Primers).
Lipofectamine RNAiMAX (Thermo Fisher Scientific) was used to transfect HUVECs with miR-148b mimic, anti-miR-148b and mimic or anti-miR control (25 nM and […], respectively final concentration) or with siRNA targeting SMAD2 (20 nM final concentration), according to the manufacturer's instructions. jetPEI-HUVECs (Polyplus) was used to transfect HUVECs with DNA plasmids. The following functional assays were performed: BrdU incorporation assay using Cell Proliferation colorimetric assay (Roche); Matrigel assay with HUVECs was performed as previously described using BD Matrigel Basement Membrane Matrix (BD Biosciences)^53.
Proteins were extracted from cultured cells or muscles by using ice-cold buffer A (50 mM Hepes, 150 mM NaCl, 1 mM EDTA, 1 mM EGTA, 25 mM NaF, 5 mM NaPPi, 1%Triton, 1% NP40, 1 mM Na3VO4, 0.25% sodium deoxycholate, 0.5 mM Na-orthovanadate, 1 mM benzamidine, 0.1 mM phenylmethylsulfonyl fluoride). Protein concentration was determined using the Bio-Rad Protein Assay Reagent (Bio-Rad Laboratories, UK). Detection of proteins by Western blot analyses was done following separation of whole cell extracts (20 μg) on SDS-polyacrylamide gels. Proteins were transferred to nitrocellulose membranes and probed with the following antibodies: TGFβ2 (Abcam, ab36495, 1:1000), SMAD2 (SantaCruz Biotechnology, Santa Cruz, Calif., USA; #3102, 1:1000), p-SMAD2 (465/467) (Cell Signaling; #3108, 1:1000); CD31 (Abcam., 1:1000), VE-Cadherin (Abcam, ab33168, 1:1000), COL1A1 (Abcam, ab138492, 1:200), FSP-1 (5100A4; Abcam, ab41532, 1:1000), SLUG (Abcam, ab27568, 1:1000), β-actin (Abcam, ab16039, 1:4000), HDAC3 (GeneTex GTX113303, 1:1000) and GAPDH (GeneTex, GT239, 1:1000) (both used as loading control). For detection, the inventors used secondary antibodies conjugated to horseradish peroxidase which were rabbit anti-mouse (Abcam, ab97046, 1:5000) and goat anti-rabbit (Abcam, ab6721, 1:10000). Detection was developed by chemiluminescence reaction (ECL) (Immunoblot, Millipore, 23225).
Cells were fixed using 4% paraformaldehyde in PBS at room temperature for 15 min. For intracellular staining, fixed cells were permeabilized using 0.5% Triton X-100 in PBS (Sigma-Aldrich) or 0.1% Saponin in PBS at room temperature for 10 min. The blocking of […] antibody activity was performed using 3% bovine serum albumin (BSA) in PBS for 1 hour. Samples were incubated with antibodies to CD31 (Abcam, ab28364, 1:50), VE-cadherin (Abcam, ab33168, 1:100), FSP-1 (Abcam, ab41532, 1:200) and COL1A1 (Abcam, ab138492, 1:100) in PBS containing 1% BSA at 4° C. overnight. […]

| Molecule | CD31 and VE-cadherin immunoreactivity [1] | COL1A1 and FSP-1 immunoreactivity [1] | rounded/cobblestone morphology [1] | CD31 and VE-cadherin, mRNA and protein levels [2] | COL1A1 and FSP-1 staining (immunostaining) [2] | TGFB2, SMAD2, SLUG, FSP-1, COL1A1 (mRNA and protein) [2] | endothelial markers CD31 and VE-cadherin on ECs membrane (immunostaining) [2] | phosphorylation of SMAD2 [2] |
| --- | --- | --- | --- | --- | --- | --- | --- | --- |
| anti-miR-148b: miR-148b inhibitor oligonucleotide; suitable inhibitor: hsa-miR-148b-3p miRCURY LNA inhibitor, CAAAGTTCTGTGATGCACTG (SEQ ID NO: 6) (commercial miRCURY LNA inhibitor, LNA positions not given here) | pronounced decrease | increase | lost |  |  |  |  |  |
| miR-148b mimic: miR-148b mimic oligonucleotide; in a particular embodiment has SEQ ID NO: 1, the human precursor miR-148b sequence (nucleic acid, listed as RNA, chemistry not given here) CAAGCACGAUUAGCAUUUGAGGUGAAGUUCUGUUAUACACUCAGGCUGUGGCUCUCUGAAAGUCAGUGCAUCACAGAACUUUGUCUCGAAAGCUUUCUA |  |  |  | rescued | decrease | decreased | maintenance | reduced |
